The values that follow are results of earlier work, collected in PMC3736882.

This data set concerns the target Factor VIII (Homo sapiens) (UniProt P00451).
UniProt P00451, sequence (P00451 760-1332): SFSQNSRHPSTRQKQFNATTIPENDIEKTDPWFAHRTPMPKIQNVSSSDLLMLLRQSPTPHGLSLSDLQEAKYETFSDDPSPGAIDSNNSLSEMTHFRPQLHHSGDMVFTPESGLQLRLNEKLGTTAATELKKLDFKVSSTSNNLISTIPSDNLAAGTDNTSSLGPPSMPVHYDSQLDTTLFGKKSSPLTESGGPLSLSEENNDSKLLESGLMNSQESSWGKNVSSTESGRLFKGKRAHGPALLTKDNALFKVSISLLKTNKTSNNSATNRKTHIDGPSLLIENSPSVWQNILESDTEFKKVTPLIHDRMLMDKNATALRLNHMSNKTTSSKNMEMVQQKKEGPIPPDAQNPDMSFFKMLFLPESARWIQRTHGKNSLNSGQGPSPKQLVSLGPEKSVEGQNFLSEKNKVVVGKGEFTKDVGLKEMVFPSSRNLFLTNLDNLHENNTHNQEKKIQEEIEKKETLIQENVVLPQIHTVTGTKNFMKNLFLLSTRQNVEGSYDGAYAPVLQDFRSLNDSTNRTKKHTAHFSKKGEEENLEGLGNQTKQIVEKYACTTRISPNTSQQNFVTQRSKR

With “von Willebrand factor (from UniProt P04275)”, the Kd was less than 1 nM.

The Kd is the constant that tells how readily two partners part at equilibrium.
